This experiment has as its target GFP-tagged epidermal growth factor receptor (EGFR-GFP) (human) (UniProt P00533). The experiment in a line: dual-colour single-molecule TIRF colocalisation with step-wise photobleaching.

For the substance “tetramethylrhodamine-labelled epidermal growth factor (EGF-TMR) (ligand)”, the percent of EGFR foci colocalised with EGF, across 60 min came to 40% and the percent of all EGFR molecules in foci colocalised with EGF came to 64%.

The values above are taken from article doi:10.1101/305292.
